The experiment deals with LC8 dynein light chain (DYNLL2), full-length, His6-tagged (human (by the printed accession Q96FJ2), UniProt Q96FJ2 1-89). The experiment in a line: SPR; His6-LC8 immobilised on Ni2+-NTA HTG sensor chip (ProteOn XPR36) at three densities (1200, 900, 600 RU); peptides injected at five concentrations, 60 ul/min; 20 mM Hepes, 150 mM NaCl, 0.05% Tween-20, 0.1 mM TCEP, 50 uM EDTA, pH 7.5; 1:1 Langmuir global fit; apparent Kd, mean of kinetic and equilibrium analysis. Conditions: both partners purified. In general terms: In SPR one partner is held on a chip, and binding of the other changes the refractive index at the surface.
Sequence of LC8 dynein light chain (DYNLL2), full-length, His6-tagged (Q96FJ2 whole entry, one chain of several): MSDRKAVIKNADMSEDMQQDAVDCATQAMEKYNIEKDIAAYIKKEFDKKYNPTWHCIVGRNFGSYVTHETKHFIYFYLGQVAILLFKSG

B1: WWC1 (KIBRA) LC8 binding motif peptide, start 278 (peptide)
chain: KQYLDVSSQTD
modifications: core 278-285 printed; S1 Table prints the 11-mer KQYLDVSSQTD starting at 275; termini chemistry not stated
In the case of B1, the Kd was 0.45 µM.

B2: WWC3 LC8 binding motif peptide, start 208 (peptide)
chain: QQFCDAGSQTD
modifications: printed start 208 appears to be in older 1092-aa numbering (current entry +124, so core 332-339); 11-mer assumed to add 3 N-terminal residues, as in the S1 Table motif format
On to B2, for which the Kd was determined as 5.34 µM.

B3: WWC2 LC8 binding motif peptide, start 962 (peptide)
chain: PTLVDKETNTD
modifications: core 962-969 printed; 11-mer assumed to add 3 N-terminal residues, as in the S1 Table motif format; termini chemistry not stated
As for B3, the Kd is 17.6 µM.

B4: AMOTL1 LC8 binding motif peptide, start 873 (peptide)
chain: TGSKDSSTQTD
modifications: core 873-880 printed; 11-mer assumed to add 3 N-terminal residues, as in the S1 Table motif format; termini chemistry not stated
Turning to B4, the Kd worked out at 1.55 µM.

B5: WWC2 LC8 binding motif peptide, start 282 (peptide)
chain: RQTLDAGSQTS
modifications: core 282-289 printed; 11-mer assumed to add 3 N-terminal residues, as in the S1 Table motif format; termini chemistry not stated
For B5, the Kd was found to be 32.7 µM.

B6: WWC1 (KIBRA) LC8 binding motif peptide, start 887 (peptide)
chain: ALKVDKETNTE
modifications: core 887-894 printed; 11-mer assumed to add 3 N-terminal residues, as in the S1 Table motif format; termini chemistry not stated
Consider B6, for which the Kd amounted to 4 µM.

B7: AMOT LC8 binding motif peptide, start 860 (peptide)
chain: TGSRDCSTQTE
modifications: core 860-867 printed; 11-mer assumed to add 3 N-terminal residues, as in the S1 Table motif format; termini chemistry not stated
Turning to B7, the Kd was determined as 1.2 µM.

B8: WWC3 LC8 binding motif peptide, start 867 (peptide)
chain: PLKVDKETNTE
modifications: printed start 867 appears to be in older 1092-aa numbering (current entry +124, so core 991-998); 11-mer assumed to add 3 N-terminal residues, as in the S1 Table motif format
For the molecule B8, the Kd worked out at 3.5 µM.

B9: AMOTL2 LC8 binding motif peptide, start 724 (peptide)
chain: HGSRDGSTQTE
modifications: core 724-731 printed; 11-mer assumed to add 3 N-terminal residues, as in the S1 Table motif format; termini chemistry not stated
For the molecule B9, the Kd turned out to be 1.98 µM.

Source of the values: article PMC5746249, “Novel linear motif filtering protocol reveals the role of the LC8 dynein light chain in the Hippo pathway” (PLoS Computational Biology, 2017).
